The test deals with zebrafish P2X4 construct ΔP2X4-C (ΔN27/ΔC24/N78K/N187R) (zebrafish) (UniProt F8W463). Description: crystal structure; ΔP2X4-C (2 mg/ml) with 3 mM CTP; crystals grown at 4 °C by cross-seeding in 20-26% PEG 2000, 300 mM Mg(NO3)2, 100 mM Tris pH 8.0; 2.8 Å.

“zebrafish P2X4 construct ΔP2X4-C (ΔN27/ΔC24/N78K/N187R) (from UniProt F8W463 28-365) (receptor)”: the stoichiometry N was 3.

As a reminder, the stoichiometry N is the number of molecules, sites or subunits per partner or assembly.

The values are drawn from publication PMC5362899, “Structural insights into the nucleotide base specificity of P2X receptors” (Scientific Reports, 2017).
